The text below walks through data of IntAct's records for PubMed 25266290.

First the molecules themselves.
B1: Ras-related protein Rab-5A (Homo sapiens), P20339 (parent)
chain: MASRGATRPNGPNTGNKICQFKLVLLGESAVGKSSLVLRFVKGQFHEFQESTIGAAFLTQTVCLDDTTVKFEIWDTAGQERYHSLAPMYYRGAQAAIVVYDITNEESFARAKNWVKELQRQASPNIVIALSGNKADLANKRAVDFQEAQSYADDNSLLFMETSAKTSMNVNEIFMAIAKKLPKNEPQNPGANSARGRGVDLTEPTQPTRNQCCSN
partner: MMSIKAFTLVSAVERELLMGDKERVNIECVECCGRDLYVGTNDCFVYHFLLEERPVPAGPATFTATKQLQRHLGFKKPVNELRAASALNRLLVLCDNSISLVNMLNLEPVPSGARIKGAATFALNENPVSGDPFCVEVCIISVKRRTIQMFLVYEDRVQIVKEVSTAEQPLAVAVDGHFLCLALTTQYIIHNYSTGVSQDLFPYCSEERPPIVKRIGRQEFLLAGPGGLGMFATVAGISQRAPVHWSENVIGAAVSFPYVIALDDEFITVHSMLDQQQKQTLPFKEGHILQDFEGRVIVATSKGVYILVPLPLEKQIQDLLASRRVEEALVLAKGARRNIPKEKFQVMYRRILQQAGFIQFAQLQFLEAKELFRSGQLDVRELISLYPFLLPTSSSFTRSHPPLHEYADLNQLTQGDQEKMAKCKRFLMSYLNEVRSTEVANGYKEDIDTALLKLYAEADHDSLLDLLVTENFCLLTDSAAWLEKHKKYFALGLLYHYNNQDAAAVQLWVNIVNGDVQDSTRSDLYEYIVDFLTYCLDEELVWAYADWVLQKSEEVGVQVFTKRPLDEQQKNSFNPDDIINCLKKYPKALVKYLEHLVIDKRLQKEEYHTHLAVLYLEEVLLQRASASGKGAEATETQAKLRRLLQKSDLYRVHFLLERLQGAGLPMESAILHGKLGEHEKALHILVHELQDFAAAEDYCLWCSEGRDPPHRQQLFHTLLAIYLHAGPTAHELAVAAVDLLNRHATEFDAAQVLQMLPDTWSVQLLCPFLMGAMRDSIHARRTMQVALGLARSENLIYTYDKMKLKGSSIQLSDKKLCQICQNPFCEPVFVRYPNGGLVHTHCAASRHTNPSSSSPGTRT

Variants of B1 are the subject of the assay. The following applies: with tgfa1_human TGFBRAP1, Q8WUH2.
For S34N, the “effect of a mutation on the interaction” value is recorded as “decreasing interaction”.
